Usually Kd stands for the concentration at which binding is half-saturated. Usually koff stands for the first-order rate constant of dissociation. By kon is commonly meant the rate constant with which the complex forms.

One experiment deals with T1, Rabbit serum albumin (rabbit, UniProt P49065 25-608).
T1 construct: bought; immobilised on a CM5 chip by amine coupling; also called Rabbit SA
The experiment can be described thus: SPR, SA on chip, 25 C.

In a further experiment the target is T2, Mouse serum albumin (mouse, UniProt P07724 25-608).
T2 construct: bought; immobilised on a CM5 chip by amine coupling; also called Mouse SA
The experiment can be described thus: SPR, SA on chip, 1:1 fit, 25 C. Background: Surface plasmon resonance follows binding to a sensor surface in real time, without labels.

The target of the next experiment is T3, Human serum albumin (human, UniProt P02768 25-609).
T3 construct: bought; immobilised on a CM5 chip by amine coupling; also called Human SA
Put plainly: SPR, SA on chip, 1:1 fit, 25 C.

The next experiment deals with T4, Pig serum albumin (pig, UniProt P08835 25-607).
T4 construct: bought; immobilised on a CM5 chip by amine coupling; also called Pig SA
Put plainly: SPR, SA on chip, 1:1 fit, 25 C.

The target of another experiment is T5, Dog serum albumin (dog, UniProt P49822 25-608).
T5 construct: bought; immobilised on a CM5 chip by amine coupling; also called Dog SA
The experiment can be described thus: SPR, SA on chip, 1:1 fit, 25 C.

The next experiment concerns the target T6, Rat serum albumin (rat, UniProt P02770 25-608).
T6 construct: bought; immobilised on a CM5 chip by amine coupling; also called Rat SA
The experiment can be described thus: SPR, SA on chip, 1:1 fit, 25 C.

Experiment [1] addresses T7, Cynomolgus monkey serum albumin (cynomolgus monkey, UniProt A2V9Z4 25-608).
T7 construct: bought; immobilised on a CM5 chip by amine coupling; also called Cyno SA
Put plainly: SPR, SA on chip, 1:1 fit, 25 C.
Procedure: (§1) Human SA is obtained from Sigma Aldrich (Cat. No. A8763). […] Mouse SA is obtained from Sigma Aldrich (Cat. No. A3139). Rat SA is obtained from Sigma Aldrich (Cat. No. A4538). Pig SA is obtained from Sigma Aldrich (Cat. No. A4414). […] Cow SA is obtained from Sigma Aldrich (Cat. No. A7030). […] Excess reactive groups on the surfaces (flow cell 1 and 2) are deactivated by injecting 70 μl of 1 M Ethanolamine hydrochloride-NaOH pH 8.5.
(§2) 180 μl of sample are individually injected sequentially across the immobilized SAs on the chip's surface and dissociated for 600 sec at 60 μl/min flow rate at 25° C.

Another experiment addresses T8, Cow serum albumin (cow, UniProt P02769 25-607).
T8 construct: bought; immobilised on a CM5 chip by amine coupling; also called Cow SA
The experiment can be described thus: SPR, SA on chip, 1:1 fit, 25 C.

Procedure for Cow serum albumin: as §1, §2
Procedure for Dog serum albumin: as §1, §2
Procedure for Human serum albumin: as §1, §2
Procedure for Mouse serum albumin: as §1, §2
Procedure for Pig serum albumin: as §1, §2
Procedure for Rabbit serum albumin: as §1, §2
Procedure for Rat serum albumin: as §1, §2

B1: VHH-based fusion of Example 8, VHH fusion 8 (GLP1-(G4Q)5-MC6.1C22.43) (other)
chain: HGEGTFTSDVSSYLEEQAAKEFIAWLVKGGGGGGGQGGGGQGGGGQGGGGQGGGGQEVQLLESGGGLVQPGGSLRLSCAASGRYIDETAVAWFRQAPGKEREFVAGIGGGVDITYYADSVKGRFTISRDNSKNTLYLQMNSLRPEDTAVYYCAARPGRPLITSKVADLYPYWGQGTLVTVSSPP
notes: also called Compound 8; GLP-1-VHH fusion
As to B1, the binding result with Rabbit serum albumin was “no binding (tested: up to 1000 nM)”. For the same molecule, the Kd with Mouse serum albumin worked out at 18 nM; with Human serum albumin, 0.15 nM; in the experiment with Pig serum albumin, 27 nM; in the experiment with Dog serum albumin, 5.4 nM; with Rat serum albumin, 11 nM; in experiment [1] it was 0.96 nM. In addition, the Kd in the experiment with Cow serum albumin came to 120 nM. The koff with Mouse serum albumin was 0.01 s⁻¹; with Human serum albumin, 0.00011 s⁻¹; in the experiment with Pig serum albumin, 0.013 s⁻¹; in the experiment with Dog serum albumin, 0.0038 s⁻¹; with Rat serum albumin it was 0.0071 s⁻¹; in experiment [1], 0.00087 s⁻¹. In addition, in the experiment with Cow serum albumin, the off-rate constant (koff) amounted to 0.093 s⁻¹. Also, the kon with Mouse serum albumin was found to be 560000 M⁻¹ s⁻¹; in the experiment with Human serum albumin it was 720000 M⁻¹ s⁻¹; in the experiment with Pig serum albumin, 490000 M⁻¹ s⁻¹; with Dog serum albumin it was 710000 M⁻¹ s⁻¹; with Rat serum albumin, 660000 M⁻¹ s⁻¹; in experiment [1] it was 910000 M⁻¹ s⁻¹. In addition, the kon with Cow serum albumin was 800000 M⁻¹ s⁻¹.

The values are drawn from patent US20240316154A1 (Eli Lilly, published 2024).
